This is an account of results in article PMC8124314.

pKd: −log10 of the molar value. Read-outs that look alike come from different tables or passages of the source.

The target in experiment [1] is E-cadherin (Homo sapiens) (UniProt P12830). The conditions noted are these: cited from earlier work.
Experiment [2] concerns the target MBP-fused epithelial cadherin (MBP-eCAD). The experiment in a line: SPR.
Experiment [3] has the same target. The experiment in a line: SPR. The source holds these as a separate data set.

As for E-cadherin (from UniProt P12830), in experiment [1], the negative-log Kd (pKd) is 4.00.

As for “MBP-fused epithelial cadherin (MBP-eCAD) (domain or fragment)”, in experiment [2], the pKd is 6.71, the koff is 0.000696 s⁻¹ and the kon came out at 4650 M⁻¹ s⁻¹. The same substance had a pKd in experiment [3] of 3.71.
